Measurements taken from patent US10925971B2, “Methods of treating PRLR positive breast cancer” (Regeneron Pharmaceuticals, Inc., priority 2016, dated 2021).

What was measured:
NCI-N87/hPRLR cells = experiment: In vitro cell viability (cell kill) assay; format: cell-based, human; conditions: NCI-N87/PRLR; Table 17
Text: PRLR-overexpressing cells, including HEK293, PC3, MCF7 and NCI-N87, were generated to assess the ability of anti-PRLR conjugated antibodies to reduce cell viability. For comparative purposes, PC3 and T47D cells with overexpressed ErbB2 were also generated, as well as an MCF7 cell line over-expressing both hPRLR and hErbB2. Briefly, Lipofectamine® 2000-mediated transfection methodology was utilized to generate HEK293 cells expressing human PRLR (HEK293/hPRLR) or human ErbB2 (HEK293/hErbB2). Lipofectamine LTX with Plus Reagent was used to generate PC3 cells expressing human PRLR (PC3/hPRLR) or human ErbB2 (PC3/hErbB2). […]
Next, the ability of anti-PRLR-DM1 antibody-drug conjugates (i.e., anti-PRLR antibodies conjugated to DM1 via a non-cleavable linker [SMCC]) to reduce cell viability was determined using in vitro cell based assays. […] The 293, PC3 and T47D cells were incubated with CCK8 (Dojindo, Rockville, Md.) for the final 1-3 hours and the absorbance at 450 nm (OD450) was determined on a Flexstation3 (Molecular Devices, Sunnyvale, Calif.). […] Images were acquired on the ImageXpress micro XL (Molecular Devices, Sunnyvale, Calif.) and nuclear counts were determined via Columbus image analysis software (Perkin Elmer, Shelton, Conn.). […] IC50 values were determined from a four-parameter logistic equation over a 10-point response curve (GraphPad Prism).

PRLR expressing cells = experiment: In vitro cell viability (cell kill) assay, several cell backgrounds; format: cell-based, human; conditions: PC3/hPRLR and MCF7/hPRLR cell lines
Text: (§1) PRLR-overexpressing cells, including HEK293, PC3, MCF7 and NCI-N87, were generated to assess the ability of anti-PRLR conjugated antibodies to reduce cell viability. For comparative purposes, PC3 and T47D cells with overexpressed ErbB2 were also generated, as well as an MCF7 cell line over-expressing both hPRLR and hErbB2. Briefly, Lipofectamine® 2000-mediated transfection methodology was utilized to generate HEK293 cells expressing human PRLR (HEK293/hPRLR) or human ErbB2 (HEK293/hErbB2). Lipofectamine LTX with Plus Reagent was used to generate PC3 cells expressing human PRLR (PC3/hPRLR) or human ErbB2 (PC3/hErbB2). Lentiviral-mediated transduction was utilized to generate MCF7 cells expressing human PRLR (MCF7/hPRLR), NCI-N87 cells expressing human PRLR (NCI-N87/hPRLR), T47D cells over-expressing human ErbB2 (T47D/hErbB2), and MCF7 cells expressing both human PRLR and human ErbB2 (MCF7/hPRLR/hErbB2). All lines were selected for at least two weeks in complete growth media plus appropriate selection reagents. Stably expressing populations were enriched for PRLR expression via FACS using the anti PRLR antibody Control I.
(§2) Next, the ability of anti-PRLR-DM1 antibody-drug conjugates (i.e., anti-PRLR antibodies conjugated to DM1 via a non-cleavable linker [SMCC]) to reduce cell viability was determined using in vitro cell based assays. Cells were seeded in PDL-coated 96 well plates at 1500 to 10000 cells per well in complete growth media and allowed to grow overnight. For cell viability curves, ADCs or free DM1 (as the methyl disulfide derivative DM1-SMe) were added to the cells at final concentrations ranging from 500 nM to 5 pM and incubated for 3 days. The 293, PC3 and T47D cells were incubated with CCK8 (Dojindo, Rockville, Md.) for the final 1-3 hours and the absorbance at 450 nm (OD450) was determined on a Flexstation3 (Molecular Devices, Sunnyvale, Calif.). MCF7 cells were treated with Hoechst 33342 nuclear stain while being fixed with 4% formaldehyde. Images were acquired on the ImageXpress micro XL (Molecular Devices, Sunnyvale, Calif.) and nuclear counts were determined via Columbus image analysis software (Perkin Elmer, Shelton, Conn.). Background OD450 values (PC3, 293, and T47D) or nuclear counts (MCF7) from digitonin (40 nM) treated cells was subtracted from all wells and viability was expressed as a percentage of the untreated controls. IC50 values were determined from a four-parameter logistic equation over a 10-point response curve (GraphPad Prism).

PC3/PRLR tumors = experiment: PC3/PRLR xenograft, tumor size and tumor growth inhibition; format: in vivo, SCID mice; conditions: for Average Tumor Growth Inhibition (%) / Final Tumor size mm^3 (mean ± SEM): PC3/PRLR tumors TRIAL #1, SCID mice, Day 63
How it was run: (§3)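 MCF7/PRLR cells in mammary fat pad of female NCr nude mice, PC3/PRLR in flank of male SCID, T47D #11 in flank of female CB17 SCID, all with estrogen pellets.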

SK-BR-3 cells = experiment: In vitro cell viability (cell kill) assay; format: cell-based, human; conditions: Table 16
MCF7/PRLR tumors = experiment: MCF7/PRLR breast cancer xenograft, tumor size and tumor growth inhibition; format: in vivo, NCr nude mice; conditions: for Average Tumor Growth Inhibition (%) / Final Tumor size mm^3 (mean ± SEM): MCF7/PRLR tumors TRIAL #1, NCr Nude mice, Day 52
How it was run: as §3

T47D cells = experiment: In vitro cell viability (cell kill) assay, CCK8; format: cell-based, human
How it was run: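 T47D cells grown overnight, then exposed for 3 days to anti-PRLR-DM1 ADCs (SMCC non-cleavable linker) or DM1-SMe at 500 nM to 5 pM.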

MCF7 (MCF7/ATCC) cells = experiment: In vitro cell viability (cell kill) assay, nuclear counts; format: cell-based, human; conditions: MCF7; Table 16
Text: as §1, §2

HEK293 (293) cells = experiment: In vitro cell viability (cell kill) assay, CCK8; format: cell-based, human; conditions: 293
How it was run: (§4)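 Readout: CCK8 absorbance at 450 nm (293, PC3) or Hoechst-stained nuclear counts after formaldehyde fixation (MCF7). hPRLR-expressing lines, seeded overnight, got DM1 ADCs (non-cleavable SMCC linker) or DM1-SMe, 500 nM–5 pM, 3 days. Viability as % untreated after digitonin background; IC50 by four-parameter logistic.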

[1] = tested on: HEK293/hPRLR (293/hPRLR) cells; experiment: In vitro cell viability (cell kill) assay, CCK8; format: cell-based, human
How it was run: as §4

PC3 cells = experiment: In vitro cell viability (cell kill) assay, CCK8; format: cell-based, human; conditions: Table 11, 3 days
How it was run: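 Cells stably overexpressing human PRLR (transfected or lentiviral, FACS-enriched) were treated for 3 days with anti-PRLR-SMCC-DM1 ADCs or free DM1-SMe at 500 nM to 5 pM. HEK293 and PC3 viability was read by CCK8 OD450; MCF7 by Hoechst nuclear counts. Digitonin background subtracted; % of untreated; IC50 from 10-point four-parameter fit.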

MCF7/hPRLR/hErbB2 cells = experiment: In vitro cell viability (cell kill) assay; format: cell-based, human; conditions: MCF/PRLR + ErbB2; Table 17
Text: as §1, §2
(§5) The potency of anti-PRLR conjugated antibodies compared with a similarly conjugated antibody to the co-expressed ErbB2 cell surface target was also assessed.

HEK293/hErbB2 cells = experiment: In vitro cell viability (cell kill) assay; format: cell-based, human; conditions: 293/ErbB2; Table 14
Text: as §1, §2, §5

PC3/hErbB2 cells = experiment: In vitro cell viability (cell kill) assay; format: cell-based, human; conditions: PC3/ErbB2; Table 15
Text: as §1, §2, §5

B1: H1H6953N-DM1 (conjugate)
VH: EVQLLESGGGLVQPGGTLRLSCAASGFTFSAYAMSWVRQAPGKGLEWVSSINVRAGDTYYADSVKGRFTISRDNSKNTLFLLMNSLRAEDTAAYYCAKARYSSNWGFDFWGQGTLVTVSS
VL: DIVMTQSPDSLTVSLGARTTINCQSSQTILHSSNNHNYLAWYQQKPGLPPKLLIYWSSTRESGVPDRFSGSGSGTDFTLTISSLQAEDVAIYYCQQYSNTPYTFGQGTKLEIN
**Q.** With B1 as the molecule, how does the “% Kill” value (NCI-N87/hPRLR cells) read?
**A.** Its value is 94%.

**Q.** And the “cell killing, non-cleavable DM1 ADCs versus cleavable MMAE ADCs” value (PRLR expressing cells)?
**A.** Its value is “nearly equivalent cell killing”.

**Q.** And the “Average Tumor Growth Inhibition (%)” value (PC3/PRLR tumors; multi-dose 5 mg/kg)?
**A.** The value was 23%.

**Q.** And the “Final Tumor size mm^3 (mean ± SEM)” value (PC3/PRLR tumors; multi-dose 5 mg/kg)?
**A.** Its value is 1058 ± 138 mm^3.

**Q.** And the “Average Tumor Growth Inhibition (%)” value (PC3/PRLR tumors; multi-dose 15 mg/kg)?
**A.** The value was 39%.

**Q.** What about the “Final Tumor size mm^3 (mean ± SEM)” value (PC3/PRLR tumors; multi-dose 15 mg/kg) of the same molecule?
**A.** Its value is 892 ± 53 mm^3.

**Q.** And the “PC3/PRLR tumor growth” value (PC3/PRLR tumors; multi-dose, especially at 15 mg/kg)?
**A.** Its value is “demonstrated inhibition of tumor growth”.

**Q.** What about the “% Kill” value (SK-BR-3 cells) of the same molecule?
**A.** Its value is 77%.

**Q.** What about the “Average Tumor Growth Inhibition (%)” value (MCF7/PRLR tumors; multi-dose 5 mg/kg) of the same molecule?
**A.** The value was 120%.

**Q.** And the “Final Tumor size mm^3 (mean ± SEM)” value (MCF7/PRLR tumors; multi-dose 5 mg/kg)?
**A.** Its value is 107 ± 45 mm^3.

**Q.** And the “Average Tumor Growth Inhibition (%)” value (MCF7/PRLR tumors; multi-dose 15 mg/kg)?
**A.** Its value is 133%.

**Q.** What about the “Final Tumor size mm^3 (mean ± SEM)” value (MCF7/PRLR tumors; multi-dose 15 mg/kg) of the same molecule?
**A.** The value was 0 ± 0 mm^3.

**Q.** And the “MCF7/PRLR tumor growth” value (MCF7/PRLR tumors; first multi-dose trial, 5 and 15 mg/kg)?
**A.** Its value is “potently inhibited MCF7/PRLR tumor growth”.

**Q.** What about the percent killing (T47D cells; T47D cells) of the same molecule?
**A.** The percent killing was 78%.

**Q.** And the “% Kill” value (T47D cells; T47D, Table 16)?
**A.** The value was 78%.

**Q.** What about the “% Kill” value (MCF7 (MCF7/ATCC) cells) of the same molecule?
**A.** The value was 74%.

**Q.** And the “% Kill” value (HEK293 (293) cells; Table 11, 3 days)?
**A.** Its value is 88%.

**Q.** What about the “% Kill” value (HEK293 (293) cells; Table 14) of the same molecule?
**A.** Its value is 92%.

**Q.** What about the “% Kill” value ([1]; 293/PRLR, Table 14) of the same molecule?
**A.** The value was 93%.

**Q.** And the percent killing ([1]; 293/hPRLR cells)?
**A.** The percent killing was 93%.

**Q.** What about the “% Kill” value (PC3 cells) of the same molecule?
**A.** The value was 78%.

**Q.** And the IC50 (PC3 cells)?
**A.** The IC50 was 110 nM.

**Q.** And the “% Kill” value (MCF7/hPRLR/hErbB2 cells)?
**A.** The value was 77%.

**Q.** And the “% Kill” value (HEK293/hErbB2 cells)?
**A.** Its value is 98%.

**Q.** What about the IC50 (HEK293/hErbB2 cells) of the same molecule?
**A.** The IC50 was 120 nM.

**Q.** And the “% Kill” value (PC3/hErbB2 cells)?
**A.** Its value is 73%.
